Consider one molecule from PMC2990581, “Molecular imaging of glioblastoma multiforme using anti-insulin-like growth factor-binding protein-7 single-domain antibodies” (British Journal of Cancer, 2010).

Experiment [1] addresses IGFBP7 in mouse vessels of orthotopic U87MG.EGFRvIII glioblastoma (Mus musculus, UniProt Q61581). In words: cell-based or functional assay.
In experiment [2] the target is T1, IGFBP7 in human glioblastoma multiforme tissue (Homo sapiens, UniProt Q16270).
T1 construct: source: endogenous, frozen human GBM tissue sections
In words: immunostaining of cells or tissue; frozen human or mouse brain tumour sections fixed in methanol; sdAb 4.43 (1:100 of 1 mg/ml) for 3 h at RT; detected with anti-c-myc antibody and alexa 647 secondary. As to conditions: one partner purified.

For experiment [3], the target named is T2, recombinant human insulin-like growth factor-binding protein 7 (IGFBP7), R&D Systems (human) (UniProt Q16270).
T2 sequence: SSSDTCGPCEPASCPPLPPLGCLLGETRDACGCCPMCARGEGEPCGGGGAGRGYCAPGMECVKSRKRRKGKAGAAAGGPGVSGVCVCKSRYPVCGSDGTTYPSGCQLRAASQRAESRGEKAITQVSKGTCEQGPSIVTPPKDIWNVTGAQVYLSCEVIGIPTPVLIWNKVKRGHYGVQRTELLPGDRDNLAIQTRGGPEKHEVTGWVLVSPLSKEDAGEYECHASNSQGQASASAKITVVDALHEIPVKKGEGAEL
Kind of experiment: SPR; Biacore 3000; ~1400 RU recombinant human IGFBP7 amine-coupled on a CM5 chip, ovalbumin as reference; sdAb flowed at 25-200 nM; 25°C; 10 mM HEPES pH 7.4, 150 mM NaCl, 3 mM EDTA, 0.005% P20; 40 μl/min; 1:1 kinetic fit of the 25 nM data, steady-state affinity model and Scatchard plot of the equilibrium data. (SPR reads the build-up and loss of mass on a sensor chip optically.)

Sequence of IGFBP7 in mouse vessels of orthotopic U87MG.EGFRvIII glioblastoma (Q61581 26-281): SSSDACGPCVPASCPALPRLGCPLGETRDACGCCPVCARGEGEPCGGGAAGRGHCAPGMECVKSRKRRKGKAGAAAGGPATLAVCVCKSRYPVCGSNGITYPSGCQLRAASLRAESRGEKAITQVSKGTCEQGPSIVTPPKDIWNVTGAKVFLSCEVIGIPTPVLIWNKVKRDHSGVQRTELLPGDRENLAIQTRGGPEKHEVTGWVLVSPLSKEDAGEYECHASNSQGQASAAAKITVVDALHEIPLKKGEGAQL

B1: anti-IGFBP7 single-domain antibody (sdAb) 4.43 (VHH)
VHH: QVKLEESGGGLVQAGGSLRLSCAASGRTSRRYAMGWFRQAPGKEREFVAGISRSGDGTHYAYSVKGRFTISRDNAANTVELQMNSLKPEDTAVYFCAAARTAFYYYGNDYNYWGQGTQVTVSS
notes: VHH isolated from an immune llama phage display library; For in vivo imaging the same sdAb was labelled with Cy5.5 succinimidyl ester (dye/antibody ratio of one) or conjugated to PEGylated Fe3O4 nanoparticles; also called anti-IGFBP7 sdAb; source: expressed periplasmically (vector pSJF2), purified by IMAC; not shown: c-Myc, C-terminal, kept
For B1, the “brain tumour fluorescence signal by in vivo optical imaging 24 h after i.v. injection of 50 μg anti-IGFBP7 sdAb-Cy5.5, against negative control (NC) sdAb-Cy5.5” value in experiment [1] is 6 fold. Also, the binding result in experiment [2] is “binds”. In experiment [3], the Kd is 20 nM and the off-rate constant (koff) is 0.0013 s⁻¹.

As usually defined, the Kd is the constant that tells how readily two partners part at equilibrium. As a reminder, the koff is the first-order rate constant of dissociation.
